The values below come from paper PMC12732243.

The target of this experiment is human FSH receptor (human) (UniProt P23945).
Chain of human FSH receptor (human) (P23945 18-695): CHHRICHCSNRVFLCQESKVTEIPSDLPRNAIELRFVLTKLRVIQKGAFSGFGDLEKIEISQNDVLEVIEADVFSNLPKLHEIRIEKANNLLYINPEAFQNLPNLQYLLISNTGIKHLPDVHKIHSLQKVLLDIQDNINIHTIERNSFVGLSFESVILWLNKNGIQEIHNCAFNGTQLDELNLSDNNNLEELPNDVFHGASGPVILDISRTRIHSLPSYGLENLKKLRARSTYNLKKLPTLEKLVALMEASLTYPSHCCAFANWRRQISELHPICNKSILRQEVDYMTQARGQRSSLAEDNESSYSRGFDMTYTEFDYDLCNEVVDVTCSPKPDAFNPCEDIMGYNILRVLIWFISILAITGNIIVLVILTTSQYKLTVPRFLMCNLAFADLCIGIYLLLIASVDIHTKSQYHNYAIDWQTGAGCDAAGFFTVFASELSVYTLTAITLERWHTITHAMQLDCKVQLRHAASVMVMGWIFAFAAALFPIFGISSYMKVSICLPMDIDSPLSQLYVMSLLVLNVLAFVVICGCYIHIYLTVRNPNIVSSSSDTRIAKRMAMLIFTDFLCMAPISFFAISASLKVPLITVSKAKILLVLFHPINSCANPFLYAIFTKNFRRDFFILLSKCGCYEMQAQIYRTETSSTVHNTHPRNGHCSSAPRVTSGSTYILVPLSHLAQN

Consider “recombinant monkey single-chain FSHβ/α (from UniProt Q6EV79 19-129; Q9BEH3 25-120) (ligand)”, for which the cAMP accumulation (HTRF) in HEK 293 cells expressing hFSHR, 30 min at room temperature with 0.5 mM IBMX; EC50 of the dose-response curve is 4.9 µL/mL.
